Patent publication US10792329B2, “S100 based treatment of cardiac power failure” (Ruprecht-Karls-Universitat Heidelberg, priority 2013, dated 2020)

Tests used:
Assay type in all cases: in vivo
[1] = test system: C57B/6 mice with normal cardiac function; experiment: Cardiac performance (echocardiography, LV EF %) versus myocardial S100A1 protein level in normal mice
Description: The range of myocardial S100A1 protein expression that conveys cardiac performance enhancement in mice with normal cardiac function is determined by the use of AAV9-mediated human S100A1 cDNA myocardial delivery. The cardiac performance with respect to gradually increasing myocardial S100A1 protein levels was assessed in normal 6 months old C57B/6 mice with the aim to determine the efficient dose range of S100A1 protein concentrations in normal myocardium for acute and sustained enhancement of cardiac function in vivo. Techniques used are described in detail in Voelkers et al. Circ Res (2011) 108; 27-39 employing intravenous application of AAV9 for a gradual increase in global myocardial transgene expression; in Most et al. JCI (2004) 114; 1550-1563 for echocardiography for cardiac function analysis. AAV9-S100A1 and corresponding control vector generation and use of the cardiac specific promoter element to drive expression of both transgenes is described in detail in Pleger et al. Science Translational Medicine (2011) 3, 92ra64. The S100A1 overexpression (2, 4, 8, 20 and 50 fold) corresponds to intravenous AAV9-S100A1 dosages (total virus particles; tvp) 5×10^10, 1×10^11, 2×10^11, 5×10^11, 1×10^12 respectively. Total S100A1 protein amount in murine myocardium was assessed by ELISA as described in detail in Example 4. S100A1 concentrations were measured by Western Blot as described by Most et al. JCI (2004) 114; 1550-1563 using a custom-made rabbit anti-S100A1 polyclonal IgG antibody (SA 5632). 0.83 μg S100A1 protein/g wet weight myocardium equals normal S100A1 values in healthy left ventricular myocardium and has been set as 1 for relative comparison. Conversion between n-fold relative changes assessed by WB and total myocardial S100A1 protein measured by ELISA is given by the second x-axis. […] The biologically effective S100A1 dosages fall into the range between 0.83 to 41.5 μg S100A1 protein/g wet weight myocardium and peak actions relate to 3.32 μg S100A1 protein (assessed by ELISA).

[2] = test system: C57B/6 mice with impaired cardiac function due to experimental myocardial infarction; experiment: Cardiac function (LV EF %, LV+dp/dt max) in failing mouse hearts
Description: (§1) The therapeutic window of viral-based re-expression and augmentation of myocardial S100A1 protein concentrations in mice with impaired cardiac function was then analysed. The results for S100A1 dose-dependency in normal mice provides the basis for determining the therapeutic window of S100A1 re-expression in C57B/6 mice with impaired cardiac function due to experimental myocardial infarction through temporary occlusion of the left anterior coronary artery as technically described in detail in Brinks et al. Circ Res (2010) 107; 1140-1149. Techniques for intravenous application of AAV9 for gradual increases in global myocardial transgene expression are described in detail in Voelkers et al. Circ Res (2011) 108; 27-39; in Most et al. JCI (2004) 114; 1550-1563 echocardiography for cardiac function analysis. AAV9-S100A1 and corresponding control vector generation and use the cardiac specific promoter element to drive expression of both transgenes is described in detail in Pleger et al. Science Translational Medicine (2011) 3, 92ra64. The S100A1 re-/overexpression 0.7, 2, 4, 8, 20 and 50 fold corresponds to intravenous AAV9-S100A1 dosages (total virus particles; tvp) 2×10^10 ′, 5×10^10, 1×10^11, 2×10^11, 5×10^11, 1×10^12 respectively. Total S100A1 protein amount in murine myocardium was assessed by ELISA as described in detail in Example 4. S100A1 concentrations were measured by Western Blot as described by Most et al. JCI (2004) 114; 1550-1563 using a custom-made rabbit anti-S100A1 polyclonal IgG antibody (SA 5632). Total S100A1 protein amounts below 0.83 μg S100A1 protein/g wet weight myocardium characterizes failing left ventricular myocardium with impaired contractile function. Conversion between n-fold relative changes assessed by WB and total myocardial S100A1 protein measured by ELISA is given by the second x-axis.
Therapeutic actions peak around 4-fold S100A1 overexpression relating to a total S100A1 protein amount of 3.32 μg S100A1 protein/g wet weight myocardium. The S100A1 therapeutic window of contractile performance enhancement falls into the range between 0.25 and 41.4 μg S100A1 protein/g wet weight myocardium. Values reflect the relative range from re-expression to normal and up to 50 fold relative increase in S100A1 protein levels.

[3] = test system: C57B/6 mice with impaired cardiac function due to experimental myocardial infarction; experiment: β-adrenergically triggered ventricular tachyarrhythmias in failing mouse hearts
Description: as §1, with “AAV9-S100A1 and corresponding control vector generation and use the cardiac specific promoter element to drive expression of both transgenes is described in detail in Pleger et al. Science Translational Medicine (2011) 3, 92ra64. The S100A1 re-/overexpression 0.7, 2, 4, 8, 20 and 50 fold corresponds to intravenous AAV9-S100A1 dosages (total virus particles; tvp) 2×10^10 ′, 5×10^10, 1×10^11, 2×10^11, 5×10^11, 1×10^12 respectively.” left out, “Total S100A1 protein amounts below 0.83 μg S100A1 protein/g wet weight myocardium characterizes failing left ventricular myocardium with impaired contractile function.” left out, “x-axis. […]” for “x-axis.”

[4] = test system: C57B/6 mice with impaired cardiac function due to experimental myocardial infarction; experiment: CrP/ATP ratio as surrogate for cardiac metabolism in failing mouse hearts
Description: as §1, with “AAV9-S100A1 and corresponding control vector generation and use the cardiac specific promoter element to drive expression of both transgenes is described in detail in Pleger et al. Science Translational Medicine (2011) 3, 92ra64. The S100A1 re-/overexpression 0.7, 2, 4, 8, 20 and 50 fold corresponds to intravenous AAV9-S100A1 dosages (total virus particles; tvp) 2×10^10 ′, 5×10^10, 1×10^11, 2×10^11, 5×10^11, 1×10^12 respectively.” left out, “Total S100A1 protein amounts below 0.83 μg S100A1 protein/g wet weight myocardium characterizes failing left ventricular myocardium with impaired contractile function.” left out, “x-axis. […]” for “x-axis.”

[5] = test system: domestic pigs with impaired cardiac function (post-ischemic heart failure); experiment: Cardiac function (LV EF %, LV+dp/dt max) in failing pig hearts
From the text: (§2) This Example details the therapeutic window of viral-based re-expression and augmentation of myocardial S100A1 protein concentrations in domestic pigs with impaired cardiac function. The results for S100A1 dose-dependency in heart failure mice provide the base for determining the therapeutic window of S100A1 re-expression animal models that approximate human weight, size and cardiovascular anatomy and pathophysiology. Post-ischemic heart failure in pigs was induced by experimental myocardial infarction through temporary occlusion of the left circumflex coronary artery by percutaneous balloon occlusion. S100A1 re-expression and overexpression was achieved by retrograde intravenous application of increasing dosages of AAV6-S100A1 with S100A1 expression controlled by a cardiac specific promoter element. Analytical techniques and molecular tools used to this end are described in detail in Pleger et al. Science Translational Medicine (2011) 3, 92ra64. AAV6 was used in addition to AAV9 exploiting its greater myocardial transduction efficacy of AAV6 to achieve increasing myocardial S100A1 protein concentrations. S100A1 re-/overexpression 1.6, 6, 20 and 50 fold corresponds to intravenous AAV9-S100A1 dosages (total virus particles; tvp) of 1.5×10^13 (1.6-fold) and AAV6-S100A1 dosages of 1.5×10^11 (6-fold), 1.5×10^12 (20 fold) and 1.5×10^13 (50-fold), respectively. […]

[6] = test system: domestic pigs with impaired cardiac function (post-ischemic heart failure); experiment: β-adrenergically triggered ventricular tachyarrhythmias, large animal model; settings: large animal example, FIG. 8
From the text: as §2

[7] = test system: domestic pigs with impaired cardiac function (post-ischemic heart failure); experiment: CrP/ATP as surrogate for cardiac metabolism in failing pig myocardium; settings: re-expression to normal and up to a 50 fold increase
From the text: as §2

[8] = re-expression to normal and up to a 50 fold increase

B1: S100A1: EF-hand calcium-binding protein of the S100 family; human S100A1 expressed in myocardium from AAV-delivered cDNA (protein, UniProt P23297 1-94, looked up)
Protein S100-A1: MGSELETAMETLINVFHAHSGKEGDKYKLSKKELKELLQTELSGFLDAQKDVDAVDKVMKELDENGDGEVDFQEYVVLVAALTVACNNFFWENS
- increase of cardiac S100A1 protein concentrations at which left ventricular ejection fraction (LV EF %) peaks ([1]; anesthetized normal mice, compared to normal S100A1 protein levels, assessed by WB): 4-6 fold
- effect of further increase in cardiac S100A1 protein concentrations ([1]; normal mice, above the effective range): loss of the S100A1-mediated contractile performance enhancement
- S100A1 protein amount of peak actions ([1]; normal mice, assessed by ELISA): 3.32 μg S100A1 protein
- S100A1 overexpression at which therapeutic actions peak [2]: around 4 fold
- total S100A1 protein amount at which therapeutic actions peak [2]: 3.32 μg S100A1 protein/g wet weight myocardium
- cardiac function assessed by LV EF % and LV+dp/dt max ([2]; S100A1 re-expression and over-expression): restores and improves cardiac function
- effect of further increase in cardiac S100A1 protein concentrations ([2]; above the therapeutic window): complete loss of S100A1's therapeutic performance enhancement
- effect of further increase in cardiac S100A1 protein concentrations ([3]; above the therapeutic window): complete loss of S100A1's therapeutic anti-arrhythmic actions
- β-adrenergically triggered ventricular tachyarrhythmias [3, 8]: prevents β-adrenergically triggered ventricular tachyarrhythmias
- effect of further increase in cardiac S100A1 protein concentrations ([4]; above the therapeutic window): complete loss of S100A1's therapeutic anti-arrhythmic actions
- CrP/ATP ratio as surrogate for cardiac metabolism restoration [4, 8]: improves the CrP/ATP ratio
- effect of further increase in cardiac S100A1 protein concentrations ([5]; above the therapeutic window): complete loss of S100A1's therapeutic actions
- cardiac function assessed by LV EF % and LV+dp/dt max [5, 8]: restores and improves cardiac function
- effect of further increase in cardiac S100A1 protein concentrations ([6]; above the therapeutic window): complete loss of S100A1's therapeutic actions
- β-adrenergically triggered ventricular tachyarrhythmias [6, 8]: prevents β-adrenergically triggered ventricular tachyarrhythmias
- CrP/ATP as a surrogate for cardiac metabolism restoration [7]: improves the CrP/ATP
